The values that follow come from patent publication CN113480644A (UNIV NANKAI, dated 2021).

For assay [1], the target named is T1, SARS-CoV-2(2019-nCoV)Spike Protein(S1 Subunit,His Tag) (SARS-CoV-2 (2019-nCoV), UniProt P0DTC2 16-685).
For assay [2], the target named is T1, SARS-CoV-2(2019-nCoV)Spike Protein(S1 …). The experiment in a line: ELISA, S1-His coated, antibody titrated.

Read-outs that look alike come from different tables or passages of the source.

B1: PR301558 (antibody, V domains shown)
VH: QVQLVQSGAEVKKPGASVKLSCKASGYSFTSYWVNWVRQAPGQGLEWIGMIHPSDSETRLNQKFKDRVTITVDKSTSTAYMELSSLRSEDTAVYYCARADGYEWYFDVWGRGTLVTVSS
VL: DIVLTQSPASLAVSPGQRATITCRASESVDSYGNSFMHWYQQKPGQPPKLLIYRASNLESGIPARFSGSGSRTDFTLTINPVEANDVANYYCQQSNEDPWTFGQGTKVEIK
As to B1, in assay [1], the EC50 came to 0.0405 nM.

B2: PR301557 (antibody, V domains shown)
VH: QVQLVQSGAEVKKPGASVKLSCKASGYSFTSYWVNWVRQAPGQGLEWIGMIHPSDSETRLNQKFKDRVTITVDKSTSTAYMELSSLRSEDTAVYYCARADGYEWYFDVWGRGTLVTVSS
VL: DIVLTQSPASLAVSPGQRATITCRASESVDSYGNSFMHWYQQKPGQPPKLLIYRASNLESGVPARFSGSGSRTDFTLTINPVEANDVANYYCQQSNEDPWTFGQGTKVEIK
B2: the response in assay [1] was half-maximal at 0.0438 nM (EC50).

B3: PR301556 (antibody, V domains shown)
VH: QVQLVQSGAEVKKPGASVKVSCKASGYSFTSYWVNWVRQAPGQGLEWMGMIHPSDSETRLNQKFKDRVTMTVDKSTSTAYMELSSLRSEDTAVYYCARADGYEWYFDVWGRGTLVTVSS
VL: DIVLTQSPASLAVSPGQRATITCRASESVDSYGNSFMHWYQQKPGQPPKLLIYRASNLESGIPARFSGSGSRTDFTLTINPVEANDVANYYCQQSNEDPWTFGQGTKVEIK
Turning to B3, the EC50 in assay [1] turned out to be 0.0272 nM.

B4: PR301442 (antibody, V domains shown)
VH: QVQLVQSGAEVKKPGASVKLSCKASGYSFTSYWVNWVRQAPGQGLEWIGMIHPSDSETRLNQKFKDRVTITVDKSTSTAYMELSSLRSEDTAVYYCARADGYEWYFDVWGRGTLVTVSS
VL: DIVLTQSPASLAVSPGQRATITCRASESVDSYGNSFMHWYQQKPGQPPKLLIYRASNLESGIPARFSGSGSGTDFTLTINPVEANDVANYYCQQSNEDPWTFGQGTKVEIK
For the molecule B4, a half-maximal response in assay [1] (EC50) required 0.0294 nM.

B5: PR301441 (antibody, V domains shown)
VH: QVQLVQSGAEVKKPGASVKVSCKASGYSFTSYWVNWVRQAPGQGLEWMGMIHPSDSETRLNQKFKDRVTMTVDKSTSTAYMELSSLRSEDTAVYYCARADGYEWYFDVWGRGTLVTVSS
VL: DIVLTQSPASLAVSPGQRATITCRASESVDSYGNSFMHWYQQKPGQPPKLLIYRASNLESGVPARFSGSGSRTDFTLTINPVEANDVANYYCQQSNEDPWTFGQGTKVEIK
B5 displayed an EC50 in assay [1] of 0.0154 nM.

B6: PR301445 (antibody, V domains shown)
VH: QVQLVQSGAEVKKPGASVKISCKTSGYTFTEYTMYWVRQAPGQRLEWMGGINPNNGDTSYNQKFKGRATLTVDKSATTAYMELSSLRSEDTAVYYCARDGYPYYFAMDYWGQGTTVTVSS
VL: DIQMTQSPSSLSASVGDRVTITCKASQNVDTNVAWYQQKPGKAPKGLIYSASHRYSGVPSRFSGSGSGTDFTLTISSVQPEDLATYFCQQYNTYPWTFGQGTKVEIK
Consider B6, for which it took 0.0147 nM to reach a half-maximal effect in assay [1] (EC50).

B7: PR301565 (antibody, V domains shown)
VH: QVQLVQSGAEVKKPGASVKISCKTSGYTFTEYTMYWVRQAPGQRLEWMGGINPNQGDTSYNQKFKGRATLTVDKSATTAYMELSSLRSEDTAVYYCARDGYPYYFAMDYWGQGTTVTVSS
VL: DIQMTQSPSSLSASVGDRVTITCKASQNVDTNVAWYQQKPGKAPKGLIYSASHRYSGVPSRFSGSGSGTDFTLTISSLQPEDLATYFCQQYNTYPWTFGQGTKVEIK
As for B7, the midpoint of the response in assay [1], the EC50, lay at 0.0143 nM.

B8: PR301563 (antibody, V domains shown)
VH: QVQLVQSGAEVKKPGASVKISCKTSGYTFTEYTMYWVRQAPGQRLEWMGGINPNNGDTSYNQKFKGRATLTVDKSATTAYMELSSLRSEDTAVYYCARDGYPYYFAMDYWGQGTTVTVSS
VL: DIQMTQSPSSLSASVGDRVTITCKASQNVDTNVAWYQQKPGKAPKGLIYSASHRYSGVPSRFSGSGSGTDFTLTISSLQPEDLATYFCQQYNTYPWTFGQGTKVEIK
For the molecule B8, the EC50 in assay [1] stood at 0.0217 nM.

B9: PR301566 (antibody, V domains shown)
VH: QVQLVQSGAEVKKPGASVKISCKTSGYTFTEYTMYWVRQAPGQRLEWMGGINPNQGDTSYNQKFKGRATLTVDKSATTAYMELSSLRSEDTAVYYCARDGYPYYFAMDYWGQGTTVTVSS
VL: DIQMTQSPSSLSASVGDRVTITCKASQNVDTNVAWYQQKPGKAPKGLIYSASHRYSGVPSRFSGSGSGTDFTLTISSVQPEDLATYFCQQYNTYPWTFGQGTKVEIK
In assay [1], B9 had an EC50 of 0.0149 nM.

B10: PR301561 (antibody, V domains shown)
VH: QVQLVQSGAEVKKPGASVKVSCKTSGYTFTEYTMYWVRQAPGQRLEWMGGINPNNGDTSYNQKFKGRVTITVDKSATTAYMELSSLRSEDTAVYYCARDGYPYYFAMDYWGQGTTVTVSS
VL: DIQMTQSPSSLSASVGDRVTITCKASQNVDTNVAWYQQKPGKAPKGLIYSASHRYSGVPSRFSGSGSGTDFTLTISSVQPEDLATYFCQQYNTYPWTFGQGTKVEIK
With B10, in assay [1], the midpoint of the response, the EC50, lay at 0.022 nM.

B11: PR301447 (antibody, V domains shown)
VH: QVQLVQSGAEVKKPGASVKISCKTSGYTFTEYTMYWVRQAPGQRLEWMGGINPNQGDTSYNQKFKGRATLTVDKSATTAYMELSSLRSEDTAVYYCAREGYPYYFAMDYWGQGTTVTVSS
VL: DIQMTQSPSSLSASVGDRVTITCKASQNVDTNVAWYQQKPGKAPKGLIYSASSRYSGVPSRFSGSGSGTDFTLTISSVQPEDLATYFCQQYNTYPWTFGQGTKVEIK
In assay [1], B11 came in with an EC50 of 2.22 nM.

B12: PR301568 (antibody, V domains shown)
VH: QVQLVQSGAEVKKPGASVKISCKTSGYTFTEYTMYWVRQAPGQRLEWMGGINPNQGDTSYNQKFKGRATLTVDKSATTAYMELSSLRSEDTAVYYCAREGYPYYFAMDYWGQGTTVTVSS
VL: DIQMTQSPSSLSASVGDRVTITCKASQNVDTNVAWYQQKPGKAPKGLIYSASHRYSGVPSRFSGSGSGTDFTLTISSVQPEDLATYFCQQYNTYPWTFGQGTKVEIK
B12 came in with an EC50 in assay [1] of 9.41 nM.

B13: PR301567 (antibody, V domains shown)
VH: QVQLVQSGAEVKKPGASVKISCKTSGYTFTEYTMYWVRQAPGQRLEWMGGINPNQGDTSYNQKFKGRATLTVDKSATTAYMELSSLRSEDTAVYYCAREGYPYYFAMDYWGQGTTVTVSS
VL: DIQMTQSPSSLSASVGDRVTITCKASQNVDTNVAWYQQKPGKAPKGLIYSASHRYSGVPSRFSGSGSGTDFTLTISSLQPEDLATYFCQQYNTYPWTFGQGTKVEIK
In assay [1], B13 displayed an EC50 of 7.54 nM.

B14: PR301564 (antibody, V domains shown)
VH: QVQLVQSGAEVKKPGASVKISCKTSGYTFTEYTMYWVRQAPGQRLEWMGGINPNNGDTSYNQKFKGRATLTVDKSATTAYMELSSLRSEDTAVYYCARDGYPYYFAMDYWGQGTTVTVSS
VL: DIQMTQSPSSLSASVGDRVTITCKASQNVDTNVAWYQQKPGKAPKGLIYSASSRYSGVPSRFSGSGSGTDFTLTISSVQPEDLATYFCQQYNTYPWTFGQGTKVEIK
B14 yielded an EC50 in assay [1] of 0.0154 nM.

B15: PR301444 (antibody, V domains shown)
VH: QVQLVQSGAEVKKPGASVKVSCKTSGYTFTEYTMYWVRQAPGQRLEWMGGINPNNGDTSYNQKFKGRVTITVDKSATTAYMELSSLRSEDTAVYYCARDGYPYYFAMDYWGQGTTVTVSS
VL: DIQMTQSPSSLSASVGDRVTITCKASQNVDTNVAWYQQKPGKAPKGLIYSASHRYSGVPSRFSGSGSGTDFTLTISSLQPEDLATYFCQQYNTYPWTFGQGTKVEIK
In assay [1], B15 registered an EC50 of 0.0204 nM.

B16: PR301446 (antibody, V domains shown)
VH: QVQLVQSGAEVKKPGASVKISCKTSGYTFTEYTMYWVRQAPGQRLEWMGGINPNQGDTSYNQKFKGRATLTVDKSATTAYMELSSLRSEDTAVYYCARDGYPYYFAMDYWGQGTTVTVSS
VL: DIQMTQSPSSLSASVGDRVTITCKASQNVDTNVAWYQQKPGKAPKGLIYSASSRYSGVPSRFSGSGSGTDFTLTISSVQPEDLATYFCQQYNTYPWTFGQGTKVEIK
Take B16: the EC50 in assay [2] is 0.00943 nM.

B17: PR301562 (antibody, V domains shown)
VH: QVQLVQSGAEVKKPGASVKVSCKTSGYTFTEYTMYWVRQAPGQRLEWMGGINPNNGDTSYNQKFKGRVTITVDKSATTAYMELSSLRSEDTAVYYCARDGYPYYFAMDYWGQGTTVTVSS
VL: DIQMTQSPSSLSASVGDRVTITCKASQNVDTNVAWYQQKPGKAPKGLIYSASSRYSGVPSRFSGSGSGTDFTLTISSVQPEDLATYFCQQYNTYPWTFGQGTKVEIK
In assay [1], B17 returned an EC50 of 0.015 nM.
